Among the data in article PMC9610207 (Viruses, 2022) are Kd values, retold here.

No end group written: not given here. Some results are limits rather than exact numbers.

For the experiment, the target named is SNX27 PDZ (amino acids 740–141) (human, UniProt Q96L92 43-136). Description: fluorescence polarisation. The settings on record: both partners purified. A general note: In fluorescence polarisation assays a small probe gives low polarisation when free and higher when bound to something large.

B1: FITC-labeled peptide NSP11 4393-4405 of SARS-CoV-2 (peptide)
peptide: SADAQSFLNGFAV
modifications: also: FITC-labeled
Consider B1, for which the dissociation constant Kd (usually the concentration at which binding is half-saturated) is over 400 µM.
